B1: MCvar1 PfEMP1 CIDRα2.8 domain (residues 576-745, mutant [Plasmodium falciparum] / human CD36 ectodomain (residues 35-439) with C-terminal BAP tag, biotinylated [modified: biotin on the BAP tag (in vitro, BirA ligase); biotin … (parent)
chain 1: EDKIMSYNAFFWMWVHDMLIDSIKWRDEHGRCINKDKGKTCIKGCNKKCISFQKWVEQKKTEWGKIKDHFRKQKDIPKDWTHDDFLQTLLMKDLLLEIIQDTYGDANEIKRIEALLEQAGVGGIDFAALAGLYTKGFVAEKDTTIDKLLQHEQKEADKCLKTHTDDTCPP
chain 2: QKTIKKQVVLEEGTIAFKNWVKTGTEVYRQFWIFDVQNPQEVMMNSSNIQVKQRGPYTYRVRFLAKENVTQDAEDNTVSFLQPNGAIFEPSLSVGTEADNFTVLNLAVAAASHIYQNQFVQMILNSLINKSKSSMFQVRTLRELLWGYRDPFLSLVPYPVTTTVGLFYPYNNTADGVYKVFNGKDNISKVAIIDTYKGKRNLSYWESHCDMINGTDAASFPPFVEKSQVLQFFSSDICRSIYAVFESDVNLKGIPVYRFVLPSKAFASPVENPDNYCFCTEKIISKNCTSYGVLDISKCKEGRPVYISLPHFLYASPDVSEPIDGLNPNEEEHRTYLDIEPITGFTLQFAKRLQVNLLVKPSEKIQVLKNLKRNYIVPILWLNETGTIGDEKANMFRSQVTGKIN

Variants of: B1
Assay: SPR
Conditions: with human CD36 ectodomain (residues 35-439) with C-terminal BAP tag, plateau of the top sensorgram (highest analyte concentration of the series), concentrations not given, parent: 62, read off a plot

Q: With chain 1 E97A as the variant, how does the response read?
A: 40 RU

Q: How did the response turn out when chain 1 Q73A was run?
A: 27 RU
